{"source": "patent US7947285B2", "about": "“Methods for preventing post endoscopic retrograde cholangiopancreatography pancreatitis” (priority 2003, dated 2011)", "key": {"patients undergoing ERCP [1]": {"test_system": "patients undergoing ERCP", "assay": "Adverse events", "format": "in vivo, human", "method": "(§1) This study evaluated the following safety variables: (1) Adverse events; (2) Vital signs; (3) Serum Amylase (when clinically indicated); and (4) Serum Lipase (when clinically indicated). No drug concentration measurements were assessed in this study.\n(§2) Primary and secondary efficacy variables were compared between the treatment groups using the Fisher Exact Test or Cochran-Mantel Haenszel Association Test. Adverse events and vital signs (heart rate, blood pressure) were compared between the treatment groups using the t-test. The clinical assumption on which the power calculation is based was on incidence of post-ERCP pancreatitis among all patients without pancreas divisum of 6%. In order to show a 50% reduction in the rate of post-ERCP pancreatitis with a significance of p=0.05, at a power of 80%, 749 evaluable patients per treatment group (sPS vs. placebo) were needed."}, "patients undergoing ERCP [2]": {"test_system": "patients undergoing ERCP", "assay": "Vital signs (systolic and diastolic BP, pulse) pre and post ERCP", "format": "in vivo, human", "method": "as §1, §2\nSystolic and Diastolic blood pressure and pulse were measured for all patients' pre and post-ERCP procedure."}}, "note": "Where no end group is shown, it is not given here."}
{"substance": "synthetic porcine secretin (HSDGTFTSELSRLRDSARLQRLLQGLV-NH2; ends and bridges not checked; UniProt P63298 33-59, looked up) [SPS, synthetic form of porcine secretin, a 27 amino acid gastrointestinal peptide hormone]", "values": [{"measurement": "Patients with AE related to study drug (%)", "setting": "patients undergoing ERCP [1]; N = 488", "value": 0.2, "unit": "%"}, {"measurement": "Patients with AE related to study drug: number", "setting": "patients undergoing ERCP [1]; N = 488", "value": 1}, {"measurement": "Patients with serious AE (%)", "setting": "patients undergoing ERCP [1]; N = 488", "value": "0 (0) %"}, {"measurement": "Patients with serious AE: number", "setting": "patients undergoing ERCP [1]; N = 488", "value": "0 (0)"}, {"measurement": "Patients with severe AE (%)", "setting": "patients undergoing ERCP [1]; N = 488", "value": 0.2, "unit": "%"}, {"measurement": "Patients with severe AE: number", "setting": "patients undergoing ERCP [1]; N = 488", "value": 1}, {"measurement": "Patients with unknown severity to AE (%)", "setting": "patients undergoing ERCP [1]; N = 488", "value": 0.2, "unit": "%"}, {"measurement": "Patients with unknown severity to AE: number", "setting": "patients undergoing ERCP [1]; N = 488", "value": 1}, {"measurement": "Total No. of AEs related to study drug", "setting": "patients undergoing ERCP [1]; N = 488", "value": 1}, {"measurement": "Total No. of AEs related to study drug (%)", "setting": "patients undergoing ERCP [1]; N = 488", "value": 0.2, "unit": "%"}, {"measurement": "Total No. of serious Aes", "setting": "patients undergoing ERCP [1]; N = 488", "value": "0 (0)"}, {"measurement": "Total No. of serious Aes (%)", "setting": "patients undergoing ERCP [1]; N = 488", "value": "0 (0) %"}, {"measurement": "Total No. of severe Aes", "setting": "patients undergoing ERCP [1]; N = 488", "value": 2}, {"measurement": "Total No. of severe Aes (%)", "setting": "patients undergoing ERCP [1]; N = 488", "value": 0.4, "unit": "%"}, {"measurement": "Total No. of unknown severity to AE", "setting": "patients undergoing ERCP [1]; N = 488", "value": 1}, {"measurement": "Total No. of unknown severity to AE (%)", "setting": "patients undergoing ERCP [1]; N = 488", "value": 0.2, "unit": "%"}, {"measurement": "Total No. of Aes", "setting": "patients undergoing ERCP [1]; N = 488, p 0.0006", "value": 25}, {"measurement": "Total No. of Aes (%)", "setting": "patients undergoing ERCP [1]; N = 488, p 0.0006", "value": 5.1, "unit": "%"}, {"measurement": "Total No. of mild/moderate Aes", "setting": "patients undergoing ERCP [1]; N = 488, p 0.0039", "value": 21}, {"measurement": "Total No. of mild/moderate Aes (%)", "setting": "patients undergoing ERCP [1]; N = 488, p 0.0039", "value": 4.3, "unit": "%"}, {"measurement": "Patients with any AE (%)", "setting": "patients undergoing ERCP [1]; N = 488, p 0.0052", "value": 4.1, "unit": "%"}, {"measurement": "Patients with any AE: number", "setting": "patients undergoing ERCP [1]; N = 488, p 0.0052", "value": 20}, {"measurement": "Patients with mild/moderate AE (%)", "setting": "patients undergoing ERCP [1]; N = 488, p 0.0208", "value": 3.5, "unit": "%"}, {"measurement": "Patients with mild/moderate AE: number", "setting": "patients undergoing ERCP [1]; N = 488, p 0.0208", "value": 17}, {"measurement": "AE judged by the investigator to be related to study drug", "setting": "patients undergoing ERCP [1]; patient #16, mild AE of an hour duration", "value": "drop in blood pressure"}, {"measurement": "overall safety and tolerability", "setting": "patients undergoing ERCP [1]; patients undergoing ERCP, 16 mcg IV", "value": "safe and well tolerated"}, {"measurement": "Diastolic BP post-ERCP, Mean (SD)", "setting": "patients undergoing ERCP [2]; N = 381", "value": "68.7 (13.4) (N = 381) mm/Hg"}, {"measurement": "Pulse post-ERCP, Mean (SD)", "setting": "patients undergoing ERCP [2]; N = 381", "value": "91.0 (20.4) (N = 381)"}, {"measurement": "Systolic BP post-ERCP, Mean (SD)", "setting": "patients undergoing ERCP [2]; N = 381", "value": "131.0 (23.9) (N = 381) mm/Hg"}, {"measurement": "Diastolic BP pre-ERCP, Mean (SD)", "setting": "patients undergoing ERCP [2]; baseline, N = 397", "value": "74.6 (12.8) (N = 397) mm/Hg"}, {"measurement": "Pulse pre-ERCP, Mean (SD)", "setting": "patients undergoing ERCP [2]; baseline, N = 397", "value": "81.0 (15.7) (N = 397)"}, {"measurement": "Systolic BP pre-ERCP, Mean (SD)", "setting": "patients undergoing ERCP [2]; baseline, N = 397", "value": "142.3 (24.9) (N = 397) mm/Hg"}, {"measurement": "Change in Systolic BP, Mean (SD)", "setting": "patients undergoing ERCP [2]; pre to post ERCP, N = 378, p 0.0007", "value": "−11.4 (29.2) (N = 378) mm/Hg"}, {"measurement": "Change in Diastolic BP, Mean (SD)", "setting": "patients undergoing ERCP [2]; pre to post ERCP, N = 378, p 0.1163", "value": "−6.0 (15.3) (N = 378) mm/Hg"}, {"measurement": "Change in Pulse, Mean (SD)", "setting": "patients undergoing ERCP [2]; pre to post ERCP, N = 378, p 0.1324", "value": "9.7 (17.7) (N = 378)"}]}
